The numbers were not newly measured in paper PMC4186963, which cites them from elsewhere.

This data set concerns the target CD28 (Homo sapiens) (UniProt P10747).

As to CD80 (from UniProt P33681), the Kd (usually the constant that tells how readily two partners part at equilibrium) is 200 nM.
